Source: patent publication US10654915B2, “Antibodies useful in passive influenza immunization” (priority 2011, dated 2020)
Read-outs that look alike come from different tables or passages of the source.

How the values were obtained:
[1] = tested on: H1N1 Influenza A/Ca/04/09; test: Comparison to treatment with Tamiflu in infected mice; type: in vivo
[2] = target: H3N2 A/Perth/16/2009 HA; type: binding, influenza A
[3] = tested on: H3 A/Udorn/307/1976; test: MDCK monolayer microneutralization assay; type: cell-based, influenza A
[4] = target: H3N2 A/New York/55/2004 HA; test: Affinity by FortéBio; type: binding, influenza A
[5] = tested on: H7N3: A/Red Knot/NJ/1523470/06; design: species or system mice; conditions: mouse, in vivo, ip, 10 mg/kg
[6] = tested on: H10 (H10N7) A/Northern Shoveler; type: cell-based, influenza A
[7] = tested on: A/Ca/04/09 (H1N1); test: In vivo efficacy, treatment at Day 2; design: species or system mice; conditions: IP at Day 2, 10 mg/kg (mixture 10 mg/kg each), FIGS. 6A, 6C
[8] = target: H7N7 A/Netherlands/219/03 HA; type: binding, influenza A
[9] = tested on: H3 A/Phillipines/2/82 x-79; test: MDCK monolayer microneutralization assay; type: cell-based, influenza A
[10] = target: HA of clades spanning Group 2; test: Standard FortéBio assay (FIG. 3B); type: binding, influenza A; conditions: Group 2, FIG. 3B
[11] = target: H3N2 A/Hong Kong/8/68 HA; type: binding, influenza A
[12] = tested on: H7 A/Sanderling/A106-125; test: MDCK monolayer microneutralization assay; type: cell-based, influenza A; conditions: H7 A/Sanderling/A106-125, bird virus
[13] = tested on: H3N2 A/New York/55/2004; test: MDCK monolayer microneutralization assay; type: cell-based, influenza A
[14] = tested on: H3 A/SW/MN/02719; type: cell-based, influenza A
[15] = tested on: H3N2 A/Hong Kong/8/68 (A/HongKong/68); test: MDCK monolayer microneutralization assay; type: cell-based, influenza A
[16] = target: H7N3 A/Canada/rv444/04 HA; type: binding, influenza A
[17] = tested on: H4 (H4N4) A/Bufflehead; type: cell-based, influenza A
[18] = tested on: H3; test: Binding by MAB579 in vitro (FIG. 2); design: species or system influenza A; conditions: H3, FIG. 2
[19] = tested on: H7 A/Redknot/NJ/1523470/06; test: MDCK monolayer microneutralization assay; type: cell-based, influenza A; conditions: H7 A/Redknot/NJ/1523470/06, bird virus
[20] = tested on: H3N2 A/Wisconsin/67/2005; test: MDCK monolayer microneutralization assay; type: cell-based, influenza A
[21] = tested on: H7N7 A/Netherlands/219/03; type: cell-based, influenza A
[22] = tested on: H3N2 A/Perth/16/2009; test: MDCK monolayer microneutralization assay; type: cell-based, influenza A
[23] = tested on: Philippines 2/82; design: species or system mice; conditions: mouse, in vivo
[24] = tested on: H7N3 A/Canada/rv444/04; type: cell-based, influenza A
[25] = tested on: H7; test: Binding by MAB579 in vitro (FIG. 2); design: species or system influenza A; conditions: H7, FIG. 2
[26] = tested on: H3N2: A/Perth/16/09; design: species or system mice; conditions: mouse, in vivo, ip, 10 mg/kg
[27] = tested on: H1; test: Binding by MAB579 in vitro (FIG. 2); design: species or system influenza A; conditions: H1, FIG. 2
[28] = tested on: H7 A/Ruddy Turnstone/A106-892; test: MDCK monolayer microneutralization assay; type: cell-based, influenza A; conditions: H7 A/Ruddy Turnstone/A106-892, bird virus
[29] = target: H5 HA; type: binding, influenza A; conditions: read-out: affinity
[30] = target: H3 HA; type: binding, influenza A; conditions: read-out: affinity
[31] = target: H1 HA; type: binding, influenza A; conditions: read-out: affinity
[32] = tested on: H1N1; type: cell-based, influenza A
[33] = tested on: H9N2; type: cell-based, influenza A
[34] = tested on: H7N3; type: cell-based, influenza A
[35] = tested on: H5N1; type: cell-based, influenza A

Q: With `CCOC(=O)C1=C[C@@H](OC(CC)CC)[C@H](NC(C)=O)[C@@H](N)C1` [Tamiflu, oseltamivir phosphate, reference compound] as the molecule, how does the survival ([1]; 10 mice per group, treatment from Day +1, to Day 14) read?
A: The survival was “all but two mice were dead before eight days post infection”.

Q: What about the “weight attained, of the original weight” value ([1]; by Day 14) of the same molecule?
A: The value was 92%.

Q: And the “day at which decline in weight was reversed” value ([1]; treatment from Day +1)?
A: The value was ≤ 6 days.

B1: MAB579 (antibody, V domains shown)
VH: QVQLVQSGAEVKKPGASVKVSCKTSGYTFTAYTIHWVRQAPGQRLEWMGWINAGNGHTKYSQRFKGRVTITRDTSARTTYMELRSLTSEDTALYFCARGPETYYYDKTNWLNSHPDEYFQHWGHGTQVTVSS
VL: DIQMTQSPSTLSASVGDRVTITCRASQTINNYLAWYQQKPGKAPKLLIYKASSLESGVPSRFSGSGSGTEFTLTISSLQPDDFATYYCQEYNNDSPLTFGGGTKVEIK
modifications: CHAIN (1)...(132) MAB579 heavy chain sequence of variable domain; DOMAIN (31)...(35) CDR1; DOMAIN (50)...(67) CDR2; DOMAIN (99)...(121) CDR3; CHAIN (1)...(108) MAB579 light chain sequence of variable domain; DOMAIN (24)...(34) CDR1; DOMAIN (50)...(57) CDR2; DOMAIN (89)...(98) CDR3
Q: Which Kd ([2]; read-out: Affinity by FortéBio) does the source give for B1 here?
A: Its Kd is 0.7 nM.

Q: And the Kd ([2]; read-out: KD)?
A: Its Kd is 0.8 nM.

Q: And the “IC50” value [3]?
A: The value was 1.9 µg/mL.

Q: What about the Kd [4] of the same molecule?
A: The Kd was 0.2 nM.

Q: And the “therapeutic effectiveness (survival)” value [5]?
A: Its value is “essentially fully effective”.

Q: What about the “EC50” value [6] of the same molecule?
A: The value was 0.8 µg/mL.

Q: What about the “IC50” value [6] of the same molecule?
A: The value was 0.8 µg/mL.

Q: What about the protection / survival [7] of the same molecule?
A: The protection / survival was “no survivors after 10 days”.

Q: What about the Kd ([8]; read-out: Affinity by FortéBio) of the same molecule?
A: Its Kd is 0.4 nM.

Q: And the Kd ([8]; read-out: KD)?
A: The Kd was 0.4 nM.

Q: What about the “IC50” value [9] of the same molecule?
A: Its value is 0.9 µg/mL.

Q: And the “affinity across clades (in words)” value [10]?
A: Its value is “sub-nM affinity”.

Q: What about the Kd [11] of the same molecule?
A: The Kd was 0.2 nM.

Q: And the “IC50” value [12]?
A: The value was >20 µg/mL.

Q: And the “IC50” value ([13]; H3 A/New York/55/2004*)?
A: The value was 1.1 µg/mL.

Q: And the “Potency Difference” value ([13]; MAB579 vs CR8020 EC50, H3N2 A/New York/55/2004)?
A: The value was 5x.

Q: What about the “EC50” value ([13]; in vitro neutralization, H3N2 A/New York/55/2004) of the same molecule?
A: The value was 2.0 µg/mL.

Q: And the “IC50” value [14]?
A: Its value is 3.9 µg/mL.

Q: What about the “IC50” value ([15]; H3 A/HongKong/68) of the same molecule?
A: Its value is 2.8 µg/mL.

Q: What about the “Potency Difference” value ([15]; MAB579 vs CR8020 EC50, H3N2 A/Hong Kong/8/68) of the same molecule?
A: Its value is 3x.

Q: What about the “EC50” value ([15]; in vitro neutralization, H3N2 A/Hong Kong/8/68) of the same molecule?
A: The value was 2.0 µg/mL.

Q: What about the Kd [16] of the same molecule?
A: The Kd was 0.6 nM.

Q: What about the “EC50” value [17] of the same molecule?
A: Its value is 15.0 µg/mL.

Q: What about the “IC50” value [17] of the same molecule?
A: Its value is 15.5 µg/mL.

Q: And the “Potency Difference” value [17]?
A: The value was 3x.

Q: And the “binding affinity (in words)” value [18]?
A: The value was “tightly bound”.

Q: And the “IC50” value [19]?
A: The value was >20 µg/mL.

Q: And the “IC50” value ([20]; H3 A/Wisconsin/67/2005)?
A: Its value is 1.0 µg/mL.

Q: And the “Potency Difference” value ([20]; MAB579 vs CR8020 EC50, H3N2 A/Wisconsin/67/2005)?
A: The value was 3x.

Q: What about the “EC50” value ([20]; in vitro neutralization, H3N2 A/Wisconsin/67/2005) of the same molecule?
A: The value was 1.0 µg/mL.

Q: And the “EC50” value [21]?
A: The value was 0.7 µg/mL.

Q: What about the “IC50” value [21] of the same molecule?
A: Its value is 0.6 µg/mL.

Q: What about the “Potency Difference” value [21] of the same molecule?
A: The value was 20x.

Q: What about the “IC50” value ([22]; H3 A/Perth/16/2009) of the same molecule?
A: The value was 0.2 µg/mL.

Q: And the “Potency Difference” value ([22]; MAB579 vs CR8020 EC50, H3N2 A/Perth/16/2009)?
A: Its value is 40x.

Q: What about the “EC50” value ([22]; in vitro neutralization, H3N2 A/Perth/16/2009) of the same molecule?
A: The value was 0.05 µg/mL.

Q: And the protection / survival [23]?
A: The protection / survival was “effective”.

Q: And the “EC50” value [24]?
A: The value was 0.5 µg/mL.

Q: What about the “IC50” value [24] of the same molecule?
A: The value was 1.6 µg/mL.

Q: What about the “binding affinity (in words)” value [25] of the same molecule?
A: The value was “tightly bound”.

Q: And the “therapeutic effectiveness (survival)” value [26]?
A: The value was “essentially fully effective”.

Q: What about the “binding affinity (in words)” value [27] of the same molecule?
A: The value was “negligible binding affinity”.

Q: And the “IC50” value [28]?
A: Its value is >20 µg/mL.

B2: MAB8 (antibody)
VH: EVQLVESGGGLVKPGGSLRLSCAASGFTFSTYTMSWVRQAPGQGLEWVSSITRTSSNIYYADSVEGRFTISRDNAKNSLYLQMHSLRVEDTAVYYCARISGVVGPVPFDYWGQGTLITVSS
light: DIQMTQSPSSLSASVGDRVTITCRASQTISKYLNWYQQKPGRAPKLLIYSASSLQSGVPSRFTGSGSGTDFTLTITSLQPEDFATYYCQQSYRPSQITFGPGTKVDIK
modifications: CHAIN (1)...(121) MAB8 heavy chain sequence of variable domain; CHAIN (1)...(108) MAB8 light chain sequence
Q: With B2 as the molecule, how does the Kd [29] read?
A: Its Kd is 0.2 nM.

Q: And the Kd [30]?
A: The Kd was 16 nM.

Q: And the Kd [31]?
A: The Kd was 9 nM.

Q: And the “neutralization of infection (in words)” value [32]?
A: The value was “does not neutralize infection”.

Q: What about the “neutralization of infection (in words)” value [33] of the same molecule?
A: The value was “does not neutralize infection”.

Q: And the “neutralization of infection (in words)” value [34]?
A: The value was “does not neutralize infection”.

Q: And the “neutralization of infection (in words)” value [35]?
A: Its value is “does not neutralize infection”.
